Measurements taken from patent publication CN114456264A (INST OF MICROBIOLOGY OF CHINESE ACADEMY OF SCIENCES, dated 2022).

Biological target: SARS-CoV RBD蛋白 (SARS-CoV, UniProt P59594 306-527)
Experiment: SPR, Biacore 8K, RBD on SA chip, antibody as analyte

B1: 抗体IMCAS-364 (antibody, V domains shown)
VH: QVQLQESGGGVVQPGRSLRLSCAASGFTFSRYGMHWVRQAPGKGLEWVAVIWYDGSNKYYADSVKGRFTISRDNSKNTLYLQMNSLRADDTAVYYCAKQEGTYCSGGSCYSGLDYWGQGTLVTVSS
VL: not shown
Q: With B1 as the binder, how does the Kd read?
A: 8.17 nM
